Patent WO2001079494A1
Blank lines part the entries; values can stand above or below the binder they belong to.

Molecular target: human TPO receptor (MPL) expressed on Ba/F3 cells (human) (UniProt P40238)
Experiment: cell-based or functional assay

- ED50, proliferation of BaF/Mpl cells (WST-8): 0.029 µM
B1: 12B5 antibody (IgG) (antibody, from another filing)
scFv: QVQLVQSGGGLVRPGGSLSLSCAVSGITLRTYGMHWVRQAPGKGLEWVAGISFDGRSEYYADSVQGRFTISRDSSKNTLYLQMNSLRAEDTAVYYCARGAHYGFDIWGQGTMVTVSSGGGGTGGGGSGGGGSDIQMTQSPSTLSASIGDRVTITCRASEGIYHWLAWYQQKPGKAPKLLIYKASSLASGAPSRFSGSGSGTDFTLTISSLQPDDFATYYCQQYSNYPLTFGGGTKLEIK

- ED50, proliferation of BaF/Mpl cells (WST-8): 34.7 µM
B2: 12B5 Fab (Fab, from another filing)
scFv: B1 scFv
